Measurements from patent US20250295799A1 (Zymeworks, published 2025).
Where a chain is given by its changes, count along the chain named.

B1: v40219, H18L6_LC_N33A mAb (antibody, human IgG1, kappa, V domains shown)
VH: QVQLVQSGAEVKKPGSSVKVSCKASGYTFTDYEMHWVKQAPGHGLEWIGAIDPETGDTAYNQKFKGKATLTADTSTSTAYMELSSLRSEDTAVYYCTRYFSFAYWGQGTLVTVSS
VL: EIVLTQSPATLSLSPGERATISCRSSQSLRHSAGNTYLQWYQQKPGQAPRLLIYKVSNRFSGVPARFSGSGSGTDFTLTISSLEPEDFAVYFCYQSKHVPYTFGGGTKVEIKR
notes: no number given for this variant
B2: v40209, H18L6_LC_G34T mAb (antibody, human IgG1, kappa, V domains shown)
VH: B1 VH
VL: B1 VL with A33N, G34T
notes: as for B1
B3: v40212, H18L6_LC_G34A mAb (antibody, human IgG1, kappa, V domains shown)
VH: B1 VH
VL: B1 VL with A33N, G34A
notes: as for B1
B4: v40214, H18L6_LC_N33T mAb (antibody, human IgG1, kappa, V domains shown)
VH: B1 VH
VL: B1 VL with A33T
notes: as for B1
B5: v40217, H18L6_LC_N33K mAb (antibody, human IgG1, kappa, V domains shown)
VH: B1 VH
VL: B1 VL with A33K
notes: as for B1
B6: v40207, H18L6_LC_G34K mAb (antibody, human IgG1, kappa, V domains shown)
VH: B1 VH
VL: B1 VL with A33N, G34K
B7: v40215, H18L6_LC_N33V mAb (antibody, human IgG1, kappa, V domains shown)
VH: B1 VH
VL: B1 VL with A33V
notes: as for B1
B8: v40218, H18L6_LC_N33H mAb (antibody, human IgG1, kappa, V domains shown)
VH: B1 VH
VL: B1 VL with A33H
notes: as for B1
B9: v40205, H18L6_LC_G34H mAb (antibody, human IgG1, kappa, V domains shown)
VH: B1 VH
VL: B1 VL with A33N, G34H
notes: as for B1
B10: v40220, H18L6_LC_N33Q mAb (antibody, human IgG1, kappa, V domains shown)
VH: B1 VH
VL: B1 VL with A33Q
notes: as for B1
B11: v40210, H18L6_LC_G34S mAb (antibody, human IgG1, kappa, V domains shown)
VH: B1 VH
VL: B1 VL with A33N, G34S
notes: as for B1
B12: v40221, H18L6_LC_N33S mAb (antibody, human IgG1, kappa, V domains shown)
VH: B1 VH
VL: B1 VL with A33S
notes: as for B1
B13: v40208, H18L6_LC_G34Q mAb (antibody, human IgG1, kappa, V domains shown)
VH: B1 VH
VL: B1 VL with A33N, G34Q
B14: v40204, H18L6_LC_G34E mAb (antibody, human IgG1, kappa, V domains shown)
VH: B1 VH
VL: B1 VL with A33N, G34E
notes: as for B1
B15: v40211, H18L6_LC_G34V mAb (antibody, human IgG1, kappa, V domains shown)
VH: B1 VH
VL: B1 VL with A33N, G34V
notes: as for B1
B16: v40213, H18L6_LC_N33E mAb (antibody, human IgG1, kappa, V domains shown)
VH: B1 VH
VL: B1 VL with A33E
notes: as for B1
B17: v40206, H18L6_LC_G34R mAb (antibody, human IgG1, kappa, V domains shown)
VH: B1 VH
VL: B1 VL with A33N, G34R
B18: v40216, H18L6_LC_N33R mAb (antibody, human IgG1, kappa, V domains shown)
VH: B1 VH
VL: B1 VL with A33R
notes: as for B1
B19: v36180-MC-GGFG-AM-Compound 139 (DAR8) (antibody, human IgG1, kappa, V domains shown)
VH: B1 VH with Q1E, K38R, H43Q, K67R, T74K
VL: DVQMTQSPSSVSASVGDRVTITCRSSQSLRHSNGNTYLQWYQQKPGKAPKLLIYKVSNRFSGVPSRFSGSGSGTDFTLTISSLQPEDFATYFCYQSKHVPYTFGQGTKVEIKR
modifications: MC-GGFG-AM-Compound 139 drug-linker on reduced cysteines, sites not stated; MC-GGFG-AM-Compound 139 drug-linker on reduced cysteines, sites not stated; DAR 8 for the whole antibody
B20: v36180-MC-GGFG-Compound 141 (DAR8) (antibody, human IgG1, kappa, V domains shown)
VH: B1 VH with Q1E, K38R, H43Q, K67R, T74K
VL: B19 VL
modifications: MC-GGFG-Compound 141 drug-linker on reduced cysteines, sites not stated; MC-GGFG-Compound 141 drug-linker on reduced cysteines, sites not stated; DAR 8 for the whole antibody
B21: v36180-MC-GGFG-AM-Compound 141 (DAR8) (antibody, human IgG1, kappa, V domains shown)
VH: B1 VH with Q1E, K38R, H43Q, K67R, T74K
VL: B19 VL
modifications: MC-GGFG-AM-Compound 141 drug-linker on reduced cysteines, sites not stated; MC-GGFG-AM-Compound 141 drug-linker on reduced cysteines, sites not stated; DAR 8 for the whole antibody

molecular target: T1, recombinant human GPC3 (glypican-3) (human, UniProt P51654 25-559); experiment: SPR (Biacore T200), antibody captured by anti-Fc, GPC3 injected, single-cycle kinetics, 1:1 fit; average
T1 construct: also called huGPC3; hGPC3
Method: (§1) CM5 Series S sensor chip, Biacore™ amine coupling kit (NHS, EDC and 1 M ethanolamine), and 10 mM sodium acetate buffers were purchased from Cytiva Life Sciences (Mississauga, ON, Canada). PBS running buffer with 0.05% Tween20 (PBST) was purchased from Teknova Inc. (Hollister, CA). Antigens: recombinant human and cynomolgus GPC3 was purchased from ACROBiosystems (Newark, DE) and SEC purified on a Superdex 200 10/300 GL column (Cytiva) in PBST running buffer at 0.8 mL/min.
(§2) Screening of the antibodies for binding to GPC3 antigen was conducted via anti-Fc capture of antibodies, followed by the injection of five concentrations of GPC3. The anti-Fc surface was prepared on a CM5 Series S sensor chip by standard amine coupling methods as described by the manufacturer (Cytiva Life Sciences, Mississauga, ON, Canada). […] Approximately 150-400 RUs of each antibody (5-20 μg/mL) were captured on the goat anti-human IgG surface by injecting at 10 μL/min for 60s. Using single-cycle kinetics, five concentrations of a two-fold dilution series of human or cynomolgus GPC3 starting at 40 nM, 20 nM, 10 nM, or 5 nM depending on the antibody, with a blank buffer control were injected at 20 μL/min for 180s of contact time, followed by 180 s dissociation phase, resulting in sensorgrams with a buffer blank reference. The anti-Fc surface was regenerated to prepare for the next injection cycle by one pulse of 10 mM glycine/HCl pH 1.5 for 120 s at 40 μL/min. Blank-subtracted sensorgrams were analyzed and fit to the 1:1 Langmuir binding model using Biacore™ T200 Evaluation Software v3.2.

Binder | Kd
B1 | 18.3 nM
B2 | 11.3 nM
B3 | 12.5 nM
B4 | 19.9 nM
B5 | 18.2 nM
B6 | 11.5 nM
B7 | 22.5 nM
B8 | 20.1 nM
B9 | 10.4 nM
B10 | 17.5 nM
B11 | 10.3 nM
B12 | 19.5 nM
B13 | 10.6 nM
B14 | 14.9 nM
B15 | 21 nM
B16 | 22.7 nM
B17 | 11.9 nM
B18 | 20.1 nM

molecular target: human GPC3 on cells (human, UniProt P51654 25-554); experiment: cell-based or functional assay

Binder | EC50 (nM), cytotoxicity, 2D monolayer, HepG2 (High) | EC50 (nM), cytotoxicity, 2D monolayer, Huh-7 (Mid) | EC50 (nM), cytotoxicity, 2D monolayer, JHH-5 (Mid) | EC50 (nM), cytotoxicity, 2D monolayer, JHH-7 (High) | EC50 (nM), cytotoxicity, 2D monolayer, Huh-6 (Mid)
B19 | 0.09 nM | 0.01 nM | 0.14 nM | 1 nM | 
B20 | 0.03 nM | 0.03 nM | 0.11 nM | 0.03 nM | 0.12 nM
B21 | 0.03 nM | 0.01 nM | 0.08 nM | 0.02 nM | 0.12 nM

molecular target: T1, recombinant human GPC3 (glypican-3); experiment: SPR (Biacore T200), antibody captured by anti-Fc, GPC3 injected
Method: as §1, §2

Binder | Avg % binding huGPC3 (RU observed/theoretical)
B1 | 17.4%
B2 | 43.6%
B3 | 42.5%
B4 | 21.3%
B5 | 15.5%
B6 | 42.2%
B7 | 17.5%
B8 | 15.6%
B9 | 43.5%
B10 | 16.1%
B11 | 42.8%
B12 | 18%
B13 | 46.3%
B14 | 43%
B15 | 23.4%
B16 | 14.9%
B17 | 42%
B18 | 15.8%

molecular target: T2, recombinant cynomolgus GPC3 (glypican-3) (cynomolgus monkey, UniProt A0A2K5VK50 24-558); experiment: SPR; Kd on human GPC3 divided by Kd on cynomolgus GPC3
T2 construct: also called cynoGPC3
Method: as §1, §2

Binder | Kd Fold difference (hu/cyno)
B1 | 1.77 fold
B2 | 1.53 fold
B3 | 1.61 fold
B4 | 1.21 fold
B5 | 1.3 fold
B6 | 1.58 fold
B7 | 1.27 fold
B8 | 2.1 fold
B9 | 1.19 fold
B10 | 1.12 fold
B11 | 1.56 fold
B12 | 1.24 fold
B13 | 1.48 fold
B14 | 1.19 fold
B15 | 1.13 fold
B16 | 1.37 fold
B17 | 1.55 fold
B18 | 1.82 fold

molecular target: T2, recombinant cynomolgus GPC3 (glypican-3); experiment: SPR (Biacore T200), antibody captured by anti-Fc, GPC3 injected, single-cycle kinetics, 1:1 fit; average
Method: as §1, §2

Binder | Kd
B1 | 10.4 nM
B2 | 7.43 nM
B3 | 7.78 nM
B4 | 16.4 nM
B5 | 14 nM
B6 | 7.29 nM
B7 | 17.8 nM
B8 | 9.57 nM
B9 | 8.79 nM
B10 | 15.7 nM
B11 | 6.58 nM
B12 | 15.8 nM
B13 | 7.18 nM
B14 | 12.5 nM
B15 | 18.5 nM
B16 | 16.6 nM
B17 | 7.67 nM
B18 | 11.1 nM
